Results on 2 molecules are retold here after paper PMC4337892 (Molecular cell, 2014).

Substitutions are numbered along the chain they refer to. Numbers in names are those of the source.

In data set [1] the target is T1, H. sapiens laforin residues 1-328, wild-type (human), O95278.
T1 chain: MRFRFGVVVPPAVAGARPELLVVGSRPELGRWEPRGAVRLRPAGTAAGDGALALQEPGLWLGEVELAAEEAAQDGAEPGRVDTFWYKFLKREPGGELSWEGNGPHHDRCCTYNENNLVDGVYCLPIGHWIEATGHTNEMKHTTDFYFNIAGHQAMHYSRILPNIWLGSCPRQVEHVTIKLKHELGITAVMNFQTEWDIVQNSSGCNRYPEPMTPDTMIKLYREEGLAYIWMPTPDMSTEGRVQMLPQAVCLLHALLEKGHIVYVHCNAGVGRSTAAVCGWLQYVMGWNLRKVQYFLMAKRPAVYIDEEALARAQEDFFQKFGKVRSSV
Nature of the data set: AUC. To be noted: remark: other sources report otherwise.

The data set “SEC-SAXS” concerns the molecule itself. The data set is described as follows: SEC-SAXS. (Size exclusion chromatography separates by hydrodynamic size, large species first.)

B1: H. sapiens laforin residues 1-328, wild-type, O95278 1-328 (enzyme)
chain: T1 chain
What is called stoichiometry N is a count of units in the complex or per binding partner. Regarding B1, the stoichiometry N in data set [1] was determined as 2.

B2: H. sapiens laforin residues 1-328, C266S (enzyme, human, UniProt O95278 1-328, looked up)
chain: T1 chain with C266S
As for B2, the “stoichiometry N” value in “SEC-SAXS” was found to be 2.
